Among the data in PMC8307404, “Crystal Structure-Guided Design of Bisubstrate Inhibitors and Photoluminescent Probes for Protein Kinases of the PIM Family” (Molecules, 2021) are remaining activity values, retold here.

Molecules are shown by their SMILES. Square brackets hold non-standard residues; d marks the D form. Peptide text beside a SMILES is read from it. * marks the point of attachment. X3 = O=C(CCCCCNCc1nc2c(sc3cc(Br)cnc32)c(=O)[nH]1)*

Holding throughout (test): Kinase profiling (radiometric filter-binding)
Common to all, as to format: biochemical

The target in one data set is T1, ULK2 (Homo sapiens, UniProt Q8IYT8).
T1 sequence (Q8IYT8 1-1036): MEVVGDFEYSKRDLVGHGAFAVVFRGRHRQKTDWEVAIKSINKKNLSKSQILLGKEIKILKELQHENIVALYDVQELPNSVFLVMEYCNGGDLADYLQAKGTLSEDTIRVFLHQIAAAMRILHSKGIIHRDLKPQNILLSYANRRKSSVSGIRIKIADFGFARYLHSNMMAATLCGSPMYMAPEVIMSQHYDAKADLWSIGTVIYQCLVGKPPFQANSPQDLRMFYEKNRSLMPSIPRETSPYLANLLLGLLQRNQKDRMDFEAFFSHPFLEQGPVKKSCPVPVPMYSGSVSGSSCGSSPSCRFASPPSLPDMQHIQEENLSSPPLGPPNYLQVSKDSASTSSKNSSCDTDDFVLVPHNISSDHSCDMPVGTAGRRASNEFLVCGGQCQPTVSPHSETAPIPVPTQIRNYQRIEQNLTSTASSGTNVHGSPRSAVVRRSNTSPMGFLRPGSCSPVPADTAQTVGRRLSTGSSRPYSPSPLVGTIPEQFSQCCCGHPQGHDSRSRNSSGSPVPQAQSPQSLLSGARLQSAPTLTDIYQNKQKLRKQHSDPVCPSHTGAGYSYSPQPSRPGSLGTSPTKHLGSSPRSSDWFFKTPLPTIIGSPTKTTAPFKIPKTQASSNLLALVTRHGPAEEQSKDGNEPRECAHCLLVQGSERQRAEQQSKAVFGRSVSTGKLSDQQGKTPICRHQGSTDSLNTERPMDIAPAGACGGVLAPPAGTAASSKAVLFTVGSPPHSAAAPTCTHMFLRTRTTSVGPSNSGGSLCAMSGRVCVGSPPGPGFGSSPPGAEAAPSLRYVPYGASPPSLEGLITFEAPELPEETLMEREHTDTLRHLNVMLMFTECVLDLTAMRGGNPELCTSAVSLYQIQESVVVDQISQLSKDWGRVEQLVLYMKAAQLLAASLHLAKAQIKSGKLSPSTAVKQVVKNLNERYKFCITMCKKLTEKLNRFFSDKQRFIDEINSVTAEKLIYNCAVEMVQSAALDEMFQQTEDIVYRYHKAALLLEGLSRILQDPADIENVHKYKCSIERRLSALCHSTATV
Conditions: ULK2, 1 µM inhibitor; read-out: Residual activity, %. Summed up: (§1)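 Each compound, at 1 µM final, is screened against human protein kinases in a radiometric filter-binding format. ATP is set at or under the KM of each kinase. Values give retained activity relative to a control lacking inhibitor.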

The target of a further data set is HIPK2 (Homo sapiens, UniProt Q9H2X6). Particulars: HIPK2, 1 µM inhibitor; read-out: Residual activity, %. Summed up: as §1
The target in a further data set is JNK1 (Homo sapiens, UniProt P45983). Conditions: JNK1, 1 µM inhibitor; read-out: Residual activity, %. The procedure, abridged:
as §1

Another data set addresses IGF-1R (Homo sapiens, UniProt P08069). Particulars: 1 µM inhibitor, read-out: Residual activity, %. The procedure, abridged:
as §1

Another data set addresses BRK (Homo sapiens, UniProt Q13882). Particulars: 1 µM inhibitor, read-out: Residual activity, %. The procedure, abridged:
as §1

The target of a further data set is MKK1 (Homo sapiens, UniProt Q02750). Particulars: MKK1, 1 µM inhibitor; read-out: Residual activity, %. Summed up: as §1
The target of another data set is T2, GCK (Homo sapiens, UniProt Q12851).
T2 sequence (Q12851 1-820): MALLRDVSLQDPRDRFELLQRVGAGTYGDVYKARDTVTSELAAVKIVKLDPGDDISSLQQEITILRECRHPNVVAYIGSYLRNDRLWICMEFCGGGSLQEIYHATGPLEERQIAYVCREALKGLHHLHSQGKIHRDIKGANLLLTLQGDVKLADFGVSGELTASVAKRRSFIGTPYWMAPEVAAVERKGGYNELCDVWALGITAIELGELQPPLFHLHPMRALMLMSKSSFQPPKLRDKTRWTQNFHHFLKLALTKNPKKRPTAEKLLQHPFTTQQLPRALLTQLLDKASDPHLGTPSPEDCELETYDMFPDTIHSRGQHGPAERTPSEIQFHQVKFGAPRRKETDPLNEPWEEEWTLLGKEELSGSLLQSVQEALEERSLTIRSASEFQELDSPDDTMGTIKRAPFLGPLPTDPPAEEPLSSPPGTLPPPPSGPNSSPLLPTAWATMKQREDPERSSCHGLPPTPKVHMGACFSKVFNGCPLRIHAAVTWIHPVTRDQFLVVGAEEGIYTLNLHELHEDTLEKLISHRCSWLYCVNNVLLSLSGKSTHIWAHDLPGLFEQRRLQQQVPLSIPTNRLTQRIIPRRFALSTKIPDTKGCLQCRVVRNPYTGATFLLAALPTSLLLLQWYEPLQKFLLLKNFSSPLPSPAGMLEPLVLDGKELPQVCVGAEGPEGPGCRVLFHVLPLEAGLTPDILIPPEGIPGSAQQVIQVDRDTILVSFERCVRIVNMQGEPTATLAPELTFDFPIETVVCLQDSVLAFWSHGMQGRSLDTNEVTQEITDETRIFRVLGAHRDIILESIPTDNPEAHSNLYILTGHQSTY
Particulars: 1 µM inhibitor, read-out: Residual activity, %. Summed up: as §1

A further data set addresses IRAK1 (Homo sapiens, UniProt P51617). Particulars: IRAK1, 1 µM inhibitor; read-out: Residual activity, %. The procedure, abridged:
as §1

Chain of BRK (Q13882 whole entry): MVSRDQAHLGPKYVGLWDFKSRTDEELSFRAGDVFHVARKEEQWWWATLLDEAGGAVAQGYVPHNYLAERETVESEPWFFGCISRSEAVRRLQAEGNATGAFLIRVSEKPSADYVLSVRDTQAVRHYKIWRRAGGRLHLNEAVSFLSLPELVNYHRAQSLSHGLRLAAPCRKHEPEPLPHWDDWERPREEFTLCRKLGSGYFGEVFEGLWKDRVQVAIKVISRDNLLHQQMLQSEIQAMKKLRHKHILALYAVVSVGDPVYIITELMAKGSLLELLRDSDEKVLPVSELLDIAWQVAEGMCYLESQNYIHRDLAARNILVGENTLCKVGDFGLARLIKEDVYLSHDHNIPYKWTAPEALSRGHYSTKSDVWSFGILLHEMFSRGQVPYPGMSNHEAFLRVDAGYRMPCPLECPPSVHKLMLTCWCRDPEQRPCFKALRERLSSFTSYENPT
Chain of IRAK1 (P51617 whole entry): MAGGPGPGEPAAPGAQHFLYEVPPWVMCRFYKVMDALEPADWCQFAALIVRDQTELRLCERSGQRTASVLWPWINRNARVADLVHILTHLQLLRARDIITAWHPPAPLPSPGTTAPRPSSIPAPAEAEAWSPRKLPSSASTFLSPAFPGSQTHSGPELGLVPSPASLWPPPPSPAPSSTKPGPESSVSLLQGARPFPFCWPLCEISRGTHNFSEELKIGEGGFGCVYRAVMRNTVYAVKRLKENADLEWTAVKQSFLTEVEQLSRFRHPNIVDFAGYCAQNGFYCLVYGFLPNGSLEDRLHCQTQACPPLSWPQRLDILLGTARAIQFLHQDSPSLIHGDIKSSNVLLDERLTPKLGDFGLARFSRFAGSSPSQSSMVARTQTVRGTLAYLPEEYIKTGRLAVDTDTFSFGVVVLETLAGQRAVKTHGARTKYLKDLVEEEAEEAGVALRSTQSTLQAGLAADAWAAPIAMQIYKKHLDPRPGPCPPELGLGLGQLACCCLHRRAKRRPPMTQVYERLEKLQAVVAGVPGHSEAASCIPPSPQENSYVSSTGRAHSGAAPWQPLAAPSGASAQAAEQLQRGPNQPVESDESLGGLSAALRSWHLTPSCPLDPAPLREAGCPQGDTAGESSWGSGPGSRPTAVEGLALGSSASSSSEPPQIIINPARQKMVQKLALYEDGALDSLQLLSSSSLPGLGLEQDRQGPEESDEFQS
Chain of HIPK2 (Q9H2X6 whole entry): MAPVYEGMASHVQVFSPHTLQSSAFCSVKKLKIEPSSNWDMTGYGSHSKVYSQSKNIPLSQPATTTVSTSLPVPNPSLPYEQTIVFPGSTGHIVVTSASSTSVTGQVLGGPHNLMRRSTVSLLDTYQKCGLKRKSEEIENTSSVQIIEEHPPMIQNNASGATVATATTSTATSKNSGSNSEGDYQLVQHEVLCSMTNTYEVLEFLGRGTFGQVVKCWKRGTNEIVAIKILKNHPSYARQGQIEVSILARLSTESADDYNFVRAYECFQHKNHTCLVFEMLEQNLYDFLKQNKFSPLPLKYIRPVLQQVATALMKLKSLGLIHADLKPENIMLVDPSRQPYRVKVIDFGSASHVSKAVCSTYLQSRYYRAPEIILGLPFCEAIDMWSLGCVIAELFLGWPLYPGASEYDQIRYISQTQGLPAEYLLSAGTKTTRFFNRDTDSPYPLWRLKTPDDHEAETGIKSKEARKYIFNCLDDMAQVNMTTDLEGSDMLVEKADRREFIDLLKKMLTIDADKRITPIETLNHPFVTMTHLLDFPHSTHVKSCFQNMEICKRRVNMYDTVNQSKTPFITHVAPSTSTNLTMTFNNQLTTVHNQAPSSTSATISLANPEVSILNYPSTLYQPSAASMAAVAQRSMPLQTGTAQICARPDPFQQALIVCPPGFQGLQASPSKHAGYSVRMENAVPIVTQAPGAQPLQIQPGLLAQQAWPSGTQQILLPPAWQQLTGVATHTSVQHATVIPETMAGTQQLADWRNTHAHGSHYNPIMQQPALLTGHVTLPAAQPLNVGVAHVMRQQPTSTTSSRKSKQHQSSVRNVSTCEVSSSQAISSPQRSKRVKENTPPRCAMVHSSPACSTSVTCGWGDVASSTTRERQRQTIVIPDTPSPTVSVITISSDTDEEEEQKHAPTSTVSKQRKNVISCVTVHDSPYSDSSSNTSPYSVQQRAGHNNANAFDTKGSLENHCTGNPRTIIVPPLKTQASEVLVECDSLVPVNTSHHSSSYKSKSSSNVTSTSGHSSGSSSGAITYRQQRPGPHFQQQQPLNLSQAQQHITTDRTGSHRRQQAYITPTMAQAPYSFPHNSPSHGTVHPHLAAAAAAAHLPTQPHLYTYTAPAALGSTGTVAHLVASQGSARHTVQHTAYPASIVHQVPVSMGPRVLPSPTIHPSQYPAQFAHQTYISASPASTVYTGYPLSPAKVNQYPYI
Chain of JNK1 (P45983 whole entry): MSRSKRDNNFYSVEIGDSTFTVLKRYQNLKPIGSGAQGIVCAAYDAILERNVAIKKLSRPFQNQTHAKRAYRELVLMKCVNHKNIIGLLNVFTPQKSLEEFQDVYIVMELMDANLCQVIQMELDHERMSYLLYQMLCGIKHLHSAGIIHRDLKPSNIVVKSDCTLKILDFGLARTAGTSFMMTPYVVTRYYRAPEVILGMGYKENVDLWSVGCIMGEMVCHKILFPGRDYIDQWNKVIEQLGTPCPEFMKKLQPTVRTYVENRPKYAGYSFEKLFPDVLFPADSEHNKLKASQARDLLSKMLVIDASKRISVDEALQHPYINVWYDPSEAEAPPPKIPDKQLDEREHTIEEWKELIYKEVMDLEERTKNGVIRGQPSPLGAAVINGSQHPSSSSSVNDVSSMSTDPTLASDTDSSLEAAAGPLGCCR
Chain of IGF-1R (P08069 31-1367): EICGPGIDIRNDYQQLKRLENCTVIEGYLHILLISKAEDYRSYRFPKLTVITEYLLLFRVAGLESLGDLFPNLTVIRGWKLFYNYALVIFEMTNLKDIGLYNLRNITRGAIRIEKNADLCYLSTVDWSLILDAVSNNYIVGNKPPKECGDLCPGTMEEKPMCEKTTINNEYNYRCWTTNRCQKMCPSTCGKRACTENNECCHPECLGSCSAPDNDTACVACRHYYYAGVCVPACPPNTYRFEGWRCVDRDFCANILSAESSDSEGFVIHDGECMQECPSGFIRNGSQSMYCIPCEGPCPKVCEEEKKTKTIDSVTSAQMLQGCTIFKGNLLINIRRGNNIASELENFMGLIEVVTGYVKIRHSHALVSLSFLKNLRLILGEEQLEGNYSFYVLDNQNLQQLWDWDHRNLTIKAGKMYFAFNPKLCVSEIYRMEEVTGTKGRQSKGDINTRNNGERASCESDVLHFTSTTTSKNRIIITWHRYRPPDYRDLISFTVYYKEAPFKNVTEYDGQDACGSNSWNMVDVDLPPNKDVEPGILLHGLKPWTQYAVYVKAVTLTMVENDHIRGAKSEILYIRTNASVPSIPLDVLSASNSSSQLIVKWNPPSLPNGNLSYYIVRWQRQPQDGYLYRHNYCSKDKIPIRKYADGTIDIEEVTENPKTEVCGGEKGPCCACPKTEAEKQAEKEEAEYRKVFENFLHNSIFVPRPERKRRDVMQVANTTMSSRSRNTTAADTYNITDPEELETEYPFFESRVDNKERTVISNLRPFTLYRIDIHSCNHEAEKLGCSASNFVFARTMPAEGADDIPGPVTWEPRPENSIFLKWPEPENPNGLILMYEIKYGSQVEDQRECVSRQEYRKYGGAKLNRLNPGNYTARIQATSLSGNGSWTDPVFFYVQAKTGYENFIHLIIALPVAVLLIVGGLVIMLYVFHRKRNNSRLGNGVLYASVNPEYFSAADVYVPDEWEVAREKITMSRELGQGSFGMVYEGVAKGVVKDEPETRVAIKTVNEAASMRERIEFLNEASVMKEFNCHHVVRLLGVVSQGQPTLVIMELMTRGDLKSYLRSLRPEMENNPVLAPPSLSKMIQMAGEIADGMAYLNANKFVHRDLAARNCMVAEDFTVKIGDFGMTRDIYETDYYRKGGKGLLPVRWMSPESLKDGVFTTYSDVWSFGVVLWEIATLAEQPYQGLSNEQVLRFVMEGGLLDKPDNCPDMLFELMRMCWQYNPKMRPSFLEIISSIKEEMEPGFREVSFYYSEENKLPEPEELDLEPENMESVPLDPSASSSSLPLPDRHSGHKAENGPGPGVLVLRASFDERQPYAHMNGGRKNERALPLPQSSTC
Chain of MKK1 (Q02750 whole entry): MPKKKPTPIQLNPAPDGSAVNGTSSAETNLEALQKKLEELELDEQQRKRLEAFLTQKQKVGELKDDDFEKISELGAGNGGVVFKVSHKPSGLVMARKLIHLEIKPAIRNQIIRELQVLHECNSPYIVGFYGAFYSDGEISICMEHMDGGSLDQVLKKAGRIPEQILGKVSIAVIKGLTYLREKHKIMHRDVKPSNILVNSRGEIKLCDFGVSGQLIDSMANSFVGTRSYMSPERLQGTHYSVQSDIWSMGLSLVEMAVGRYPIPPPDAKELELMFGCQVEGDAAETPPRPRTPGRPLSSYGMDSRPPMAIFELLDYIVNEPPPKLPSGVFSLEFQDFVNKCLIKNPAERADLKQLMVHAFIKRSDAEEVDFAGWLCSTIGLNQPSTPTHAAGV

As to `N=C(N)NCCC[C@@H](NC(=O)CCCCCNCc1nc2c(sc3cc(Br)cnc32)c(=O)[nH]1)C(=O)N[C@H](CCCNC(=N)N)C(=O)N[C@H](CCCNC(=N)N)C(=O)N[C@H](CCCNC(=N)N)C(=O)N[C@H](CCCNC(=N)N)C(=O)N[C@H](CCCNC(=N)N)C(=O)N[C@H](CCCCN)C(N)=O` [ARC-3126, BPTP-Ahx-(D-Arg)6-D-Lys-NH2] (X3-[dR][dR][dR][dR][dR][dR][dK]-NH2), the remaining activity at 1 µM with ULK2 was determined as 104 ± 9%; with HIPK2, 75 ± 15%; in the data set with JNK1 it was 116 ± 4%; with IGF-1R, 114 ± 24%; in the data set with BRK it was 81 ± 4%; in the data set with MKK1, 100 ± 6%. For the same molecule, the remaining activity at 1 µM is 88 ± 14% with GCK and 120 ± 2% with IRAK1.
In the case of `N=C(N)NCCC[C@@H](NC(=O)CNC(=O)[C@@H](CCCNC(=N)N)NC(=O)[C@@H](CCCNC(=N)N)NC(=O)CCCCCCCNCc1nc2c(sc3ccc(Br)cc32)c(=O)[nH]1)C(=O)N[C@H](CCCCN)C(N)=O` [Compound 2, BBTP-Aoc-(D-Arg)2-Gly-D-Arg-D-Lys-NH2], the remaining activity at 1 µM with ULK2 was determined as 127 ± 9%; in the data set with HIPK2 it was 48 ± 2%; with JNK1 it was 112 ± 2%; with IGF-1R, 91 ± 6%; in the data set with BRK, 114 ± 11%; with MKK1, 94 ± 1%. For the same molecule, the remaining activity at 1 µM with GCK came out at 114 ± 2%; with IRAK1, 134 ± 21%.
In the case of `N=C(N)NCCC[C@@H](NC(=O)CNC(=O)[C@@H](CCCNC(=N)N)NC(=O)[C@@H](CCCNC(=N)N)NC(=O)Cn1cc(CNCc2nc3c(sc4ccc(Br)cc43)c(=O)[nH]2)nn1)C(=O)N[C@H](CCCCN)C(N)=O` [Compound 3, BBTP-Amt-(D-Arg)2-Gly-D-Arg-D-Lys-NH2], the remaining activity at 1 µM is 104 ± 11% with ULK2; 50 ± 7% with HIPK2; 115 ± 13% with JNK1; 58 ± 7% with IGF-1R; 114 ± 13% with BRK; 92 ± 6% with MKK1. In addition, the remaining activity at 1 µM with GCK was 97 ± 7%; with IRAK1, 113 ± 11%.
For the molecule `N=C(N)NCCC[C@@H](NC(=O)CCCCCNC(=O)Cn1cnc2c(I)c(I)c(I)c(I)c21)C(=O)N[C@H](CCCNC(=N)N)C(=O)N[C@H](CCCNC(=N)N)C(=O)N[C@H](CCCNC(=N)N)C(=O)N[C@H](CCCNC(=N)N)C(=O)N[C@H](CCCNC(=N)N)C(=O)N[C@H](CCCCN)C(N)=O` [ARC-3125, TIBI-CH2-C(=O)-Ahx-(D-Arg)6-D-Lys-NH2], the remaining activity at 1 µM was 34 ± 3% with ULK2; 16 ± 2% with HIPK2; 82 ± 13% with JNK1; 82 ± 41% in the data set with BRK; 32 ± 27% in the data set with MKK1; 56 ± 4% in the data set with GCK. Besides, in the data set with IRAK1, the remaining activity at 1 µM turned out to be 16 ± 3%.
`N=C(N)NCCC[C@@H](NC(=O)CNC(=O)[C@@H](CCCNC(=N)N)NC(=O)[C@@H](CCCNC(=N)N)NC(=O)CCCCCCCNCc1nc2c(sc3cc(Br)cnc32)c(=O)[nH]1)C(=O)N[C@H](CCCCN)C(N)=O` [Compound 1, BPTP-Aoc-(D-Arg)2-Gly-D-Arg-D-Lys-NH2]: the remaining activity at 1 µM amounted to 115 ± 5% with ULK2; 103 ± 13% with HIPK2; 100 ± 13% in the data set with JNK1; 77 ± 8% in the data set with IGF-1R; 126 ± 8% in the data set with BRK; 93 ± 4% with MKK1. In addition, the remaining activity at 1 µM was 112% in the data set with GCK and 131 ± 17% in the data set with IRAK1.
